Test results published in IntAct's records for PubMed 17517630.

B1: Rho GTPase-activating protein 7 (Homo sapiens), Q96QB1-1 (parent)
chain: MCRKKPDTMILTQIEAKEACDWLRATGFPQYAQLYEDFLFPIDISLVKREHDFLDRDAIEALCRRLNTLNKCAVMKLEISPHRKRSDDSDEDEPCAISGKWTFQRDSKRWSRLEEFDVFSPKQDLVPGSPDDSHPKDGPSPGGTLMDLSERQEVSSVRSLSSTGSLPSHAPPSEDAATPRTNSVISVCSSSNLAGNDDSFGSLPSPKELSSFSFSMKGHEKTAKSKTRSLLKRMESLKLKSSHHSKHKAPSKLGLIISGPILQEGMDEEKLKQLNCVEISALNGNRINVPMVRKRSVSNSTQTSSSSSQSETSSAVSTPSPVTRTRSLSACNKRVGMYLEGFDPFNQSTFNNVVEQNFKNRESYPEDTVFYIPEDHKPGTFPKALTNGSFSPSGNNGSVNWRTGSFHGPGHISLRRENSSDSPKELKRRNSSSSMSSRLSIYDNVPGSILYSSSGDLADLENEDIFPELDDILYHVKGMQRIVNQWSEKFSDEGDSDSALDSVSPCPSSPKQIHLDVDNDRTTPSDLDSTGNSLNEPEEPSEIPERRDSGVGASLTRSNRHRLRWHSFQSSHRPSLNSVSLQINCQSVAQMNLLQKYSLLKLTALLEKYTPSNKHGFSWAVPKFMKRIKVPDYKDRSVFGVPLTVNVQRTGQPLPQSIQQAMRYLRNHCLDQVGLFRKSGVKSRIQALRQMNEGAIDCVNYEGQSAYDVADMLKQYFRDLPEPLMTNKLSETFLQIYQYVPKDQRLQAIKAAIMLLPDENREVLQTLLYFLSDVTAAVKENQMTPTNLAVCLAPSLFHLNTLKRENSSPRVMQRKQSLGKPDQKDLNENLAATQGLAHMIAECKKLFQVPEEMSRCRNSYTEQELKPLTLEALGHLGNDDSADYQHFLQDCVDGLFKEVKEKFKGWVSYSTSEQAELSYKKVSEGPPLRLWRSVIEVPAVPEEILKRLLKEQHLWDVDLLDSKVIEILDSQTEIYQYVQNSMAPHPARDYVVLRTWRTNLPKGACALLLTSVDHDRAPVVGVRVNVLLSRYLIEPCGPGKSKLTYMCRVDLRGHMPEWYTKSFGHLCAAEVVKIRDSFSNQNTETKDTKSR

Variants of: B1
Details: with tens1_chick TNS1, Q04205
Sequence of tens1_chick TNS1, Q04205 (Q04205 whole entry): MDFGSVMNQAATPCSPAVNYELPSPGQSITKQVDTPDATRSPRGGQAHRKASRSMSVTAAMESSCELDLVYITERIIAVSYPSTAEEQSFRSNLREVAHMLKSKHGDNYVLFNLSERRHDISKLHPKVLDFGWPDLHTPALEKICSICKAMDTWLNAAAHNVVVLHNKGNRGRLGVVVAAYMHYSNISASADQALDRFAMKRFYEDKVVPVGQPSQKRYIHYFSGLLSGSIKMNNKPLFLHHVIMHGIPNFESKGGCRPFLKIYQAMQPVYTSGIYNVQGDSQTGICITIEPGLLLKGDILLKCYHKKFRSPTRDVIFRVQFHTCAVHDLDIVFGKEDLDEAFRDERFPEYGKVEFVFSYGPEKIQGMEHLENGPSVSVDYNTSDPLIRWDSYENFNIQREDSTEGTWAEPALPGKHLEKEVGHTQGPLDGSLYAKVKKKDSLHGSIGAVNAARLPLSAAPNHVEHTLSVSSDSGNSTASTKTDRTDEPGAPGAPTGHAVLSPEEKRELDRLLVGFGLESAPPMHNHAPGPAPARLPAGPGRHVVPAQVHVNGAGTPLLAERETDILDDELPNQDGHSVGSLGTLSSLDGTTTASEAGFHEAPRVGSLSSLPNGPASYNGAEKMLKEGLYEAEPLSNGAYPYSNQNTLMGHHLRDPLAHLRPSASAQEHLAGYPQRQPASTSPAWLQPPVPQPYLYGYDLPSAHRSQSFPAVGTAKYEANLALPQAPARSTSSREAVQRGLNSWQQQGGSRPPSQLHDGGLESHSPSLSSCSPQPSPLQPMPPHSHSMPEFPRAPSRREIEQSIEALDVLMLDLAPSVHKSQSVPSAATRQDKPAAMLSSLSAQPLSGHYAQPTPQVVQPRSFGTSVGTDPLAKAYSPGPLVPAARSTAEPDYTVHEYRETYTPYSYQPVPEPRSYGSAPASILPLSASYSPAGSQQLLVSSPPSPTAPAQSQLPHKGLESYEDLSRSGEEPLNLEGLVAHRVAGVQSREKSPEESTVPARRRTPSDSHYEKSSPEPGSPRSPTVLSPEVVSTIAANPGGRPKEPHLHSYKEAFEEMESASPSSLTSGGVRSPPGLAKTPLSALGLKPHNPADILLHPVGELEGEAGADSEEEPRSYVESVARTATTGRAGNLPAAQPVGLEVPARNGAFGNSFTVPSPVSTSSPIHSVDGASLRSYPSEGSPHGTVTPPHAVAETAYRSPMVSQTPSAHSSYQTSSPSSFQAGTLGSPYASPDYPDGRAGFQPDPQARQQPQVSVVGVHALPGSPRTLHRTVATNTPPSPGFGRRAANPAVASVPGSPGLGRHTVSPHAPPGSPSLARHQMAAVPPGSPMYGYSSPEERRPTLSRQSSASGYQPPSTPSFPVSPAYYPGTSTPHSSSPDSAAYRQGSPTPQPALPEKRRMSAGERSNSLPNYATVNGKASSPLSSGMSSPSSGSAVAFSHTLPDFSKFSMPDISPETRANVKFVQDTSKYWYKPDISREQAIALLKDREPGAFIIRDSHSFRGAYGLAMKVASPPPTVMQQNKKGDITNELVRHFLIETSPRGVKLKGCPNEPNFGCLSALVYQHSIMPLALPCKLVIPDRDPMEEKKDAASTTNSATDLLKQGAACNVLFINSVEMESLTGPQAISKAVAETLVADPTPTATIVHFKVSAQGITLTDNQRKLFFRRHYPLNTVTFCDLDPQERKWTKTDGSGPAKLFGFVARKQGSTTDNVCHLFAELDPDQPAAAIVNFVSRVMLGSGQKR

Variant | effect of a mutation on the interaction
Y442F | disrupting interaction strength
